In publication PMC4509936 (RNA, 2015):

Columns and labels:
[1] = target: T1, BMV 1a protein, carboxy-terminal flag-tagged version (Brome mosaic virus, UniProt P03588 1-961); experiment: co-IP
T1 sequence (looked up): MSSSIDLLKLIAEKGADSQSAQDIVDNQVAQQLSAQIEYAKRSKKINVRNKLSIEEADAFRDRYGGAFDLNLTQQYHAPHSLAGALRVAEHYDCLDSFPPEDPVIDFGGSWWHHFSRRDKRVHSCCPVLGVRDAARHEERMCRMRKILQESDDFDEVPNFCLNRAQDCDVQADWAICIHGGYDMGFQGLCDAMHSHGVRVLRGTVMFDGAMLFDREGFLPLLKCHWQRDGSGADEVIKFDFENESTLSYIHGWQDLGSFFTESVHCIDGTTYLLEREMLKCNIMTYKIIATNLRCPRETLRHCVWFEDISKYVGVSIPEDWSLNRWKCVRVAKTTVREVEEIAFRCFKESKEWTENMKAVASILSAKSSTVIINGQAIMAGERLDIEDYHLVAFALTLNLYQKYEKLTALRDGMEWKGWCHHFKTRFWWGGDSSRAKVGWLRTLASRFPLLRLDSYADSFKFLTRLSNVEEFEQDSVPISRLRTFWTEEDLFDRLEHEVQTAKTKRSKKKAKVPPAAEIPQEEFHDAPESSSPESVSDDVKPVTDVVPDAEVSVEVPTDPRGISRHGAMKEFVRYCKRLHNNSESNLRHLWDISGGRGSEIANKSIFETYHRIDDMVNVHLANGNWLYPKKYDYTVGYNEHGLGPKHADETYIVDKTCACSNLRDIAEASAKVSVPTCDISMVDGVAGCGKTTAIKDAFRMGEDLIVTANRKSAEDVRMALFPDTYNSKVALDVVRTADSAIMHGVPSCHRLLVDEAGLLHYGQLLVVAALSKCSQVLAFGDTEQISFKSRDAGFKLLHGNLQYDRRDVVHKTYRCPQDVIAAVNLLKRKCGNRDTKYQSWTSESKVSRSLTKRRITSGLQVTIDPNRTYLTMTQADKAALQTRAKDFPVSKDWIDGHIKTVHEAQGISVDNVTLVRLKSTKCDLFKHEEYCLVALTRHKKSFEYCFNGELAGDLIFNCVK

[2] = target: T1, BMV 1a protein, carboxy-terminal …; experiment: co-IP; remark: listed apart in the source

Binder | fold enrichment compared with “Flag only” control [1] [fold] | fold enrichment compared with “Flag only” controls [2] [fold]
Lsm1 (natural protein, S. cerevisiae (endogenous in YPH500), UniProt P47017 1-172, looked up) MSANSKDRNQSNQDAKRQQQNFPKKISEGEADLYLDQYNFTTTAAIVSSVDRKIFVLLRDGRMLFGVLRTFDQYANLILQDCVERIYFSEENKYAEEDRGIFMIRGENVVMLGEVDIDKEDQPLEAMERIPFKEAWLTKQKNDEKRFKEETHKGKKMARHGIVYDFHKSDMY | 2 | 7
Pat1 (natural protein, S. cerevisiae (endogenous in YPH500), UniProt P25644 1-796, looked up) MSFFGLENSGNARDGPLDFEESYKGYGEHELEENDYLNDETFGDNVQVGTDFDFGNPHSSGSSGNAIGGNGVGATARSYVAATAEGISGPRTDGTAAAGPLDLKPMESLWSTAPPPAMAPSPQSTMAPAPAPQQMAPLQPILSMQDLERQQRQMQQQFMNFHAMGHPQGLPQGPPQQQFPMQPASGQPGPSQFAPPPPPPGVNVNMNQMPMGPVQVPVQASPSPIGMSNTPSPGPVVGATKMPLQSGRRSKRDLSPEEQRRLQIRHAKVEKILKYSGLMTPRDKDFITRYQLSQIVTEDPYNEDFYFQVYKIIQRGGITSESNKGLIARAYLEHSGHRLGGRYKRTDIALQRMQSQVEKAVTVAKERPSKLKDQQAAAGNSSQDNKQANTVLGKISSTLNSKNPRRQLQIPRQQPSDPDALKDVTDSLTNVDLASSGSSSTGSSAAAVASKQRRRSSYAFNNGNGATNLNKSGGKKFILELIETVYEEILDLEANLRNGQQTDSTAMWEALHIDDSSYDVNPFISMLSFDKGIKIMPRIFNFLDKQQKLKILQKIFNELSHLQIIILSSYKTTPKPTLTQLKKVDLFQMIILKIIVSFLSNNSNFIEIMGLLLQLIRNNNVSFLTTSKIGLNLITILISRAALIKQDSSRSNILSSPEISTWNEIYDKLFTSLESKIQLIFPPREYNDHIMRLQNDKFMDEAYIWQFLASLALSGKLNHQRIIIDEVRDEIFATINEAETLQKKEKELSVLPQRSQELDTELKSIIYNKEKLYQDLNLFLNVMGLVYRDGEISELK | 4.5 | 25
